Reference: article PMC2844433, “Polo-Like Kinase 2-Dependent Phosphorylation of NPM/B23 on Serine 4 Triggers Centriole Duplication” (PLoS ONE, 2010)

Target: T1, Recombinant His-tagged NPM/B23 (UniProt P06748 1-294)
T1 construct: NPM/B23 (Nucleophosmin), bacterially produced, unphosphorylated; also called His-NPM/B23; His-tagged NPM/B23 WT; source: E. coli BL21, purified (Ni-NTA agarose)
Assay: pull-down; in vitro binding assay: Flag-Plk2 fragments immunoprecipitated from 293T cells, bound to Protein G sepharose, incubated with 15 µg recombinant His-NPM/B23 in PBS with 0.05% NP-40 for 2 h at 4°C; Western blot
Settings: both partners purified

T1 sequence (P06748 whole entry): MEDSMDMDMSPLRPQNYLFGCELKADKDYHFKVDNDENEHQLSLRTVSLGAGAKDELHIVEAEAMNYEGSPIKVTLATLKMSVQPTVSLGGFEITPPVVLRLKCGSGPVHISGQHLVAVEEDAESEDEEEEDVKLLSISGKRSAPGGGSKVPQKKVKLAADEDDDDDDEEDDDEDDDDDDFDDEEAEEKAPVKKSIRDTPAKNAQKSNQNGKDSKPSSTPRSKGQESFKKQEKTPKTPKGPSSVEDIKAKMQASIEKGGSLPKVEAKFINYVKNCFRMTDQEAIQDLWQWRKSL

- binding result: binds
B1: Flag-Plk2-(aa 590–685) (domain or fragment, UniProt Q9NYY3 590-685, looked up)
chain: PSVTDIRRPRLYLLQWLKSDKALMMLFNDGTFQVNFYHDHTKIIICSQNEEYLLTYINEDRISTTFRLTTLLMSGCSSELKNRMEYALNMLLQRCN
notes: also called second Polo-box of Plk2; source: 293T, transfected, immunoprecipitated with anti-Flag antibodies
